Data on one molecule can be found in patent US12527876B2, “Insulin-like growth factor-chemotherapeutic conjugate for treating myelodysplastic syndrome” (IGF Oncology, LLC, priority 2017, dated 2026).

The subject of experiment [1] is soluble IGF binding proteins. The following applies: compared to wild-type IGF-1; Francis 1992, Tomas 1993, U.S. Pat. No. 4,876,242; cited from earlier work.
In the next experiment the target is IGF receptors (Homo sapiens, UniProt P08069). The experiment can be described thus: Competition binding of refolded IGF fusion proteins to IGF receptors against radioactive wild type IGF (Example 2). The following applies: refolded 3 hours at room temperature, read-out: approximate binding constants (KDs). The protocol:
2 ml of each of the original Ni eluates from Example 1 was mixed with about an equal volume of 100 mM glycine, 6 M urea, pH 9.5, concentrated by ultrafiltration in a CENTRICON 3 kDa filter unit, then brought up again in that buffer and concentrated to about 420 ul. Then they were diluted to 2 mg/ml for 403IGF, 764IGF, and 765IGF, and 4 mg/ml for 784IGF and 2.4 mg/ml for 785IGF.
200 ul of each of these was mixed rapidly with 1.8 ml of refold buffer. Refold buffer was 1.4 M urea, 100 mM glycine, 0.5 M NaCl, 19% ethanol, 0.5 mM GSSG, 4 mM GSH, pH 9.5. They were refolded at room temperature for 3 hours, and then tested in a binding assay for competition binding to IGF receptors against […] radioactive wild type IGF (Perkin Elmer, Inc.) For comparison, commercial Long-R3-IGF (LR3IGF) was also tested.

The target of experiment [2] is T1, type 1 IGF receptors (IGF-1R) on MCF7 cells (Homo sapiens, UniProt P08069).
T1 construct: type 1 IGF receptors that are abundant on MCF7 cells; host or cells: MCF7
As to the kind of experiment: Competition binding assay to IGF-1 receptor on MCF7 cells versus I-125-labeled IGF-1. The following applies: FIG. 1 assay. The protocol:
Theory of assay: Radioactive ^125I labeled insulin-like growth factor-1 (IGF-1) competes with a test ligand for binding to type 1 IGF receptors that are abundant on MCF7 cells (a human breast cancer cell line) in vitro.
MCF7 cell media: 500 mL MEM, 0.01 mg/mL bovine insulin; 5 mL sodium pyruvate, 5 mL non-essential amino acids, 10 mL sodium bicarbonate, 10 mL fetal bovine serum, 5 mL penicillin/streptomycin.
MCF7 cells (ATCC HTB-22) were plated at 20,000 cells per well in a volume of 0.5 mL/well in a 48-well tissue culture plate (flat bottom with low evaporation lid) and placed in a cell culture incubator set at 37° C. with 5% CO2. After 2-3 days in culture the plates were washed 2× with 0.5 mL per well of cold binding assay buffer (100 mM Hepes-NaOH, pH 7.2; 120 mM NaCl; 5 mM KCl; 1.2 mM MgSO4; 0.1% BSA). After the final wash, 0.5 mL of binding assay buffer was added to each well and the plates are placed at 4° C. for 2 to 6 hours.
Test ligands were prepared at a concentration of 10 micromolar (long-R3-IGF) or 20 micromolar (765IGF and IGF-MTX) in 5 mM HCl in a volume of 200 ul. […] For long-R3, the lyophilized commercial material is dissolved at 1.0 mg/ml in 10 mM HCl and this is diluted to a concentration of 91 ug/ml for a 10 uM solution. […]
The plates were then incubated overnight at 4° C. […] Cells were lysed with 0.5 mL 300 mM NaOH, 1% SDS and the lysates were counted on a gamma counter.

T1 sequence (P08069 31-736 limits assumed): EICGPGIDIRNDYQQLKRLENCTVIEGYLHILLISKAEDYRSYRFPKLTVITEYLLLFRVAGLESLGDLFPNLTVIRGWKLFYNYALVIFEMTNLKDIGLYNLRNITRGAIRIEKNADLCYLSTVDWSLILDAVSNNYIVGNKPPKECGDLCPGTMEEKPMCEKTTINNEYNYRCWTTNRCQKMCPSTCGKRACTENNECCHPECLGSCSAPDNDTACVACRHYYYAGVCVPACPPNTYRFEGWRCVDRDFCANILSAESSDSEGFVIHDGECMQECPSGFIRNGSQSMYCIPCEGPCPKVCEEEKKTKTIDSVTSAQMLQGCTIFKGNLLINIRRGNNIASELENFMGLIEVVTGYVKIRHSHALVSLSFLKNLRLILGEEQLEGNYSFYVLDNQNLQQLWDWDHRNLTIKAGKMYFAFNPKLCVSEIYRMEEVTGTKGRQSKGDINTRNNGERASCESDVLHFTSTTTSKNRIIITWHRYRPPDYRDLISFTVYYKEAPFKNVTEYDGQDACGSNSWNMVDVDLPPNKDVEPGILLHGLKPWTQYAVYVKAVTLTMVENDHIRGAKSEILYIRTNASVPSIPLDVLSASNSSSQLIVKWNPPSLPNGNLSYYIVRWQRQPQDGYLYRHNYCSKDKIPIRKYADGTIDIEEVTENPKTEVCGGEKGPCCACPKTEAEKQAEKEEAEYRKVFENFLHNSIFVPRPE
T1 sequence (P08069 741-1367 partner limits assumed): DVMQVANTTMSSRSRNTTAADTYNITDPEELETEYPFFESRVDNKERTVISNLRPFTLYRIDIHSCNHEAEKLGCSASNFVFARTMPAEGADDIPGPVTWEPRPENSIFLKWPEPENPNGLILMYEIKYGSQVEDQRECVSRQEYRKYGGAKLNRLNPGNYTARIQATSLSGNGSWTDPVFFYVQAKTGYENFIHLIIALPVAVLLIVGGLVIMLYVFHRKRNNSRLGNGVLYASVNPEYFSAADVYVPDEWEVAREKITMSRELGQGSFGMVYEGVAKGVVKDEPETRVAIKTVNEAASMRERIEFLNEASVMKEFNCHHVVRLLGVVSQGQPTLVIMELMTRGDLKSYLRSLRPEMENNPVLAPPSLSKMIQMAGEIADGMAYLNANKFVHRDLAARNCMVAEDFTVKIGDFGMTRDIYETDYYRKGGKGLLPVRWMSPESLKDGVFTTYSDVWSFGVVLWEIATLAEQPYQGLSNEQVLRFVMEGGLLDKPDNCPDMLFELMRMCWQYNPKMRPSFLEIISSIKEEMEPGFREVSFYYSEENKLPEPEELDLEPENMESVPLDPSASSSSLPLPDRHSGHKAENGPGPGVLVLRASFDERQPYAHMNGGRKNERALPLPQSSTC
Sequence of IGF receptors (P08069 31-736 limits assumed): as the sequence (P08069 31-736 limits assumed) above
Sequence of IGF receptors (P08069 741-1367 partner limits assumed): as the sequence (P08069 741-1367 partner limits assumed) above

B1: LR3IGF: commercial Long-R3-IGF, variant of IGF-1, SEQ ID NO: 5 (protein)
chain: MFPAMPLSSLFVNGPRTLCGALVDALQFVCGDRGFYFNKPTGYGSSSRRAPQTGIVDECCFRSCDLRRLEMYCAPLKPAKSEA
For the molecule B1, in experiment [1], the “binding affinity to the soluble IGF binding proteins” value is on record as “reduced binding affinity”. Also, the Kd with IGF receptors was around 1 nM; in experiment [2] it was around 3 nM.
